Starred links: 1 amine or outer side, 2 acyl side, 3 side chain; linkers in the order of their positions; H or OH if unused. Positions of bridges follow the written chain, without caps; N, C: chain ends. Non-standard residues stand in square brackets, D forms with d. Primed or numbered codes have the meaning given here. *: point of attachment. PyrS2″ = (S)-3-amino-1-((pent-4-en-1-yloxy)carbonyl)pyrrolidine-3-carboxylic acid (stapling residue), C=CCCCOC(=O)N1CC[C@@](N[*:1])(C(=O)[*:2])C1; Tf = trifluoromethylsulfonyl on Dap side-chain N ([Tf]Dap = (S)-2-amino-3-((trifluoromethyl)sulfonamido)propanoic acid), O=S(=O)(C(F)(F)F)*; B5(16) = 2-amino-2-(pent-4-en-1-yl)hept-6-enoic acid = 2,2-bis(4-pentenyl)glycine (stitching residue), C=CCCCC(CCCC=C)(N[*:1])C(=O)[*:2]; B5(4) = 2,2-bis(4-pentenyl)glycine = 2-amino-2-(pent-4-en-1-yl)hept-6-enoic acid (stitching residue), C=CCCCC(CCCC=C)(N[*:1])C(=O)[*:2]; B5(5) = 2,2-bis(4-pentenyl)glycine, 2-amino-2-(pent-4-en-1-yl)hept-6-enoic acid (stitching residue), C=CCCCC(CCCC=C)(N[*:1])C(=O)[*:2]; TfeGA = (S)-2-amino-3-((carboxymethyl)(2,2,2-trifluoroethyl)amino)propanoic acid, O=C([C@H](CN(CC(=O)[*:3])CC(F)(F)F)N[*:1])[*:2]; PyrS2 = (S)-3-amino-1-((pent-4-en-1-yloxy)carbonyl)pyrrolidine-3-carboxylic acid, C=CCCCOC(=O)N1CC[C@@](N[*:1])(C(=O)[*:2])C1; B5(3) = 2,2-bis(4-pentenyl)glycine (stitching residue), C=CCCCC(CCCC=C)(N[*:1])C(=O)[*:2]; Phe(2-Cl) = N[C@@H](Cc1ccccc1Cl)C(=O)O; Bta = N[C@@H](Cc1csc2ccccc12)C(=O)O; αAllylPro = C=CC[C@@]1(C(=O)O)CCCN1; tBuAla = CC(C)(C)C[C@H](N)C(=O)O; 3Thi = N[C@@H](Cc1ccsc1)C(=O)O; Cha = N[C@@H](CC1CCCCC1)C(=O)O; Cit = NC(=O)NCCC[C@H](N)C(=O)O; S8 = C=CCCCCCC[C@](C)(N)C(=O)O; hSer = N[C@@H](CCO)C(=O)O; Dap = NC[C@H](N)C(=O)O
B1: I-629 (peptide)
peptide: Ac-[αAllylPro]DL[B5(16)]DEAAF[Cit][S8]F[Bta]-NH2
modifications: staple 1-4, 4-11; not fully specified; printed as Ac-PL3-Asp-Leu-B5-Asp-Glu-Ala-Ala-Phe-Cit-S8-Phe-BztA-NH2

Biological target: full-length beta-Catenin (Uniprot ID P35222) (Homo sapiens (Human)) (UniProt P35222)
Assay: fluorescence polarization competition; full-length beta-catenin, competitor 5FAM-TCF4 10-53

IC50	Binder
5000 nM	Ac-[αAllylPro]DI[B5(4)][Dap](Tf)EAAFQ[S8]F[Bta]Q-NH2 (staple 1-4, 4-11) [I-630]
60 nM	Ac-[αAllylPro]DL[B5(4)]DEAAF[Cit][S8]F[Bta]-NH2 (staple 1-4, 4-11) [I-628]
338 nM	Ac-[αAllylPro]D[Cha][B5(4)]DEAAFN[S8]F[Bta]-NH2 (staple 1-4, 4-11) [I-627]
5000 nM	Ac-[αAllylPro][Dap](Tf)I[B5(4)]DEAAFQ[S8]F[Bta]Q-NH2 (staple 1-4, 4-11) [I-632]
36 nM	B1
52 nM	Ac-[αAllylPro]D[tBuAla][B5(5)]DNAAFS[PyrS2″][Phe(2-Cl)][Bta]S-NH2 (staple 1-4, 4-11) [I-1020]
5000 nM	Ac-[αAllylPro]DI[B5(4)][Dap](Tf)EAAFQ[S8]F[Bta]Q-NH2 (staple 1-4, 4-11) [I-631]
5000 nM	Ac-[αAllylPro]D[Cha][B5(4)]DEAAFN[S8]F[Bta]-NH2 (staple 1-4, 4-11; also: earlier-eluting staple isomer) [I-626]

Biological target: full-length beta-Catenin (Uniprot ID P35222) (Homo sapiens (Human)) (UniProt P35222)
Assay: fluorescence polarization competition; displaces 5FAM-TCF4(10-53) from full-length beta-catenin
Target sequence in this assay (P35222 2-781 limits assumed): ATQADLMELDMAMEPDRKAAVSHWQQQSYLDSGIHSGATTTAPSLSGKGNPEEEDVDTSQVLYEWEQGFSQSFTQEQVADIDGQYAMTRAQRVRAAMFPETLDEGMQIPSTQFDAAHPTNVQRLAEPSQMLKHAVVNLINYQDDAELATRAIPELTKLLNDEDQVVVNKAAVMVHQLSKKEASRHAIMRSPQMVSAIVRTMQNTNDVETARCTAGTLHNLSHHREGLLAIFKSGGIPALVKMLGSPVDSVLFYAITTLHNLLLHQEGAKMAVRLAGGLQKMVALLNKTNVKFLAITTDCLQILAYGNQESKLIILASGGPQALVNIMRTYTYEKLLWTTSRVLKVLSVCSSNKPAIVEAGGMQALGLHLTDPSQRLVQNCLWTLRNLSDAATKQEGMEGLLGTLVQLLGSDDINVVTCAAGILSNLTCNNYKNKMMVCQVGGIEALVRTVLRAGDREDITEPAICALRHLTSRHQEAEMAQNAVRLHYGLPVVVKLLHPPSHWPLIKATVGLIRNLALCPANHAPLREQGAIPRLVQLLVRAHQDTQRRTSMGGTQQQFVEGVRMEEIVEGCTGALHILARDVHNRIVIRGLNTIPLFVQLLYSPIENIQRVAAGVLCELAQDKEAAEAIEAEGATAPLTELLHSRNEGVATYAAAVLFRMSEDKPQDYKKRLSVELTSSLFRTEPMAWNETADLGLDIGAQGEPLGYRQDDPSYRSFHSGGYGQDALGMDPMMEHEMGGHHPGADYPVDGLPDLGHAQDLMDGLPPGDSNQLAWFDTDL

EC50	Binder
52 nM	Ac-[αAllylPro]D[tBuAla][B5(5)]DNAAFS[PyrS2″][Phe(2-Cl)][Bta]S-NH2 (staple 1-4, 4-11) [I-1020]

Biological target: full-length beta-Catenin (Uniprot ID P35222) (Homo sapiens (Human)) (UniProt P35222)
Assay: fluorescence polarization competition; full-length beta-catenin, competitor probe 5FAM-TCF4(10-53)
Target sequence in this assay (P35222 2-781 limits assumed): as above

IC50	Binder
51 nM	Ac-[αAllylPro]D[tBuAla][B5(3)]D[TfeGA]AAFF[PyrS2″][Phe(2-Cl)][Bta]T-NH2 (staple 1-4, 4-11) [I-991]
59 nM	Ac-[αAllylPro]D[tBuAla][B5(3)]D[TfeGA]AAFF[PyrS2″][Phe(2-Cl)][Bta][hSer]-NH2 (staple 1-4, 4-11) [I-992]
55 nM	Ac-[αAllylPro]D[tBuAla][B5(3)]D[TfeGA]AAFS[S8][Phe(2-Cl)][Bta]Q-NH2 (staple 1-4, 4-11) [I-995]

Biological target: full-length beta-Catenin (Uniprot ID P35222) (Homo sapiens (Human)) (UniProt P35222)
Assay: fluorescence polarization competition; displacement of 5FAM-TCF4(10-53) from full-length beta-catenin
Target sequence in this assay (P35222 whole entry, the tested form may be a part): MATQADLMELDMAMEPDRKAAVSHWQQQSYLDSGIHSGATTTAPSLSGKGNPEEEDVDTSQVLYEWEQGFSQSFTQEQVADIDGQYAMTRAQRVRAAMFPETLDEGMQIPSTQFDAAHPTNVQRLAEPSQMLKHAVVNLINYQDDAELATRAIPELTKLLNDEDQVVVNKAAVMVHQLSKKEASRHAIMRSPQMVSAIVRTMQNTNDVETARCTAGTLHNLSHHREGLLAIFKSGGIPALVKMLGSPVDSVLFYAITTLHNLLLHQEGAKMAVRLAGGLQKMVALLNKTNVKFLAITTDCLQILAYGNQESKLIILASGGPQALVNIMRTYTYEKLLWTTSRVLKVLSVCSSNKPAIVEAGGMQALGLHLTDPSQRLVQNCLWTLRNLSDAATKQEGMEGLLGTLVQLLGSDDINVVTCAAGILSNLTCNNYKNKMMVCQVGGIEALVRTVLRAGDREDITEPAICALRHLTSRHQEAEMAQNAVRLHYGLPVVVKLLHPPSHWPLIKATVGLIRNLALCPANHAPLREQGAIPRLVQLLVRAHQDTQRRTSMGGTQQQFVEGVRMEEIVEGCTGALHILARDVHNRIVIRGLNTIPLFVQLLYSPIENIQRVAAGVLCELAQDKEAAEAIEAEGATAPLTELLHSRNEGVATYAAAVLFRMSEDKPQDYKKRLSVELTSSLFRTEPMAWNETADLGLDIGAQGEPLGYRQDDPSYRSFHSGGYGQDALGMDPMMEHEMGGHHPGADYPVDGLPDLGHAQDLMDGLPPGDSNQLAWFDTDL

IC50	Binder
154 nM	Ac-[αAllylPro]D[tBuAla][B5(4)]DYAAFN[PyrS2][3Thi][Bta]H-NH2 (staple 1-4, 4-11) [I-843]
7 nM	Ac-[αAllylPro]D[tBuAla][B5(4)]DTAAFN[PyrS2][3Thi][Bta]H-NH2 (staple 1-4, 4-11) [I-845]

Biological target: full-length beta-Catenin (Uniprot ID P35222) (Homo sapiens (Human)) (UniProt P35222)
Assay: fluorescence polarization competition; full-length beta-catenin with 5FAM-labeled TCF4 (10-53) probe as competitor
Target sequence in this assay (P35222 whole entry, the tested form may be a part): as above

EC50	Binder
51 nM	Ac-[αAllylPro]D[tBuAla][B5(3)]D[TfeGA]AAFF[PyrS2″][Phe(2-Cl)][Bta]T-NH2 (staple 1-4, 4-11) [I-991]
59 nM	Ac-[αAllylPro]D[tBuAla][B5(3)]D[TfeGA]AAFF[PyrS2″][Phe(2-Cl)][Bta][hSer]-NH2 (staple 1-4, 4-11) [I-992]
55 nM	Ac-[αAllylPro]D[tBuAla][B5(3)]D[TfeGA]AAFS[S8][Phe(2-Cl)][Bta]Q-NH2 (staple 1-4, 4-11) [I-995]

Biological target: full-length beta-Catenin (Uniprot ID P35222) (Homo sapiens (Human)) (UniProt P35222)
Assay: fluorescence polarization competition; peptide titrated against 10 nM full-length beta-catenin + 10 nM 5FAM-TCF4(10-53) probe
Target sequence in this assay (P35222 whole entry, the tested form may be a part): as above

EC50	Binder
5 µM	Ac-[αAllylPro]DI[B5(4)][Dap](Tf)EAAFQ[S8]F[Bta]Q-NH2 (staple 1-4, 4-11) [I-630]
0.713 µM	Ac-[αAllylPro]DL[B5(4)]DEAAF[Cit][S8]F[Bta]-NH2 (staple 1-4, 4-11) [I-628]
0.338 µM	Ac-[αAllylPro]D[Cha][B5(4)]DEAAFN[S8]F[Bta]-NH2 (staple 1-4, 4-11) [I-627]
5 µM	Ac-[αAllylPro][Dap](Tf)I[B5(4)]DEAAFQ[S8]F[Bta]Q-NH2 (staple 1-4, 4-11) [I-632]
0.685 µM	B1
5 µM	Ac-[αAllylPro]DI[B5(4)][Dap](Tf)EAAFQ[S8]F[Bta]Q-NH2 (staple 1-4, 4-11) [I-631]
5 µM	Ac-[αAllylPro]D[Cha][B5(4)]DEAAFN[S8]F[Bta]-NH2 (staple 1-4, 4-11; also: earlier-eluting staple isomer) [I-626]

Biological target: full-length beta-Catenin (Uniprot ID P35222) (Homo sapiens (Human)) (UniProt P35222)
Assay: fluorescence polarization competition; 10 nM full-length beta-catenin with 10 nM 5FAM-TCF4 (residues 10-53) probe as competitor
Target sequence in this assay (P35222 2-781 limits assumed): as the sequence (P35222 2-781 limits assumed) above

EC50	Binder
154 nM	Ac-[αAllylPro]D[tBuAla][B5(4)]DYAAFN[PyrS2][3Thi][Bta]H-NH2 (staple 1-4, 4-11) [I-843]
7 nM	Ac-[αAllylPro]D[tBuAla][B5(4)]DTAAFN[PyrS2][3Thi][Bta]H-NH2 (staple 1-4, 4-11) [I-845]

From US20240116985A1, “STAPLED PEPTIDES AND METHODS THEREOF” (priority 2020, published 2024)
